Where “and” joins values, the source holds several entries; their conditions need not be identical. Equal entries are not always repeated. Each block holds one molecule with its values, some of them ahead of it.
Key:
Ramos tumor cells = experiment: Apoptosis assay (annexin V / propidium iodide flow cytometry); assay type: cell-based, human; conditions: annexin V and propidium iodide double positive, 24 or 72 hours
Procedure: The ability of an i-body of the invention to induce apoptosis in Ramos tumor cells (a human Burkitt's lymphoma cell line) was examined in an apoptosis assay according to the methods as described in Mishra M et al (2011) J Cell Mol Med 15(11):2462-77. I-bodies were incubated with Ramos cells and examined by flow cytometry after 24 or 72 hours. The cells were stained for annexin V and propidium iodide which are classic markers for apoptosis. Cells which were double positive were assessed to have become apoptotic.

[1] = cited from earlier work; for bleomycin induced pulmonary fibrosis: Xu et al 2007
CCL2 and CCL5 protein = experiment: CCL2, CCL5, CXCL12 ELISA of fibroblast conditioned supernatants; assay type: cell-based, human; conditions: 48 hours
From the text: Various reports indicate that CXCR4 signals in conjunction with other chemokine receptors, including CCR2.

[2] = target: T1, human CXCR4 (CXCR4 positive lipoparticles) (Homo sapiens, UniProt P61073); experiment: Biacore SPR kinetic binding to immobilised CXCR4 lipoparticles
T1 construct: purchased Integral Molecular LEV-101B
Procedure: (FIGS. 2A-2C, 5A-5C, 11A-11D, 17A-17B) Kinetic binding analysis of selected i-bodies with immobilized CXCR4 lipoparticles were performed at 25° C. using Biacore T200 instrument (GE Healthcare, Uppsala, Sweden). Streptavidin immobilization was performed in 1×HBS-P+ running buffer (10 mM HEPES, 150 mM NaCl, 0.05% [v/v] Tween-20). […] All binding experiments involving lipoparticles were performed with 1×HBS/BSA (10 mM HEPES, 150 mM NaCl, 1 mg/mL BSA) as instrument running buffer. […] In order to determine binding kinetics, serial dilutions (three-fold) of i-bodies diluted in 1×HBS/BSA were injected over immobilized lipoparticles with the association and dissociation phases monitored for 60 sec and 600 sec, respectively. A control measurement of the instrument running buffer (“zero-buffer” blank) solution was also included for double referencing purposes. Collected experimental data were processed using Scrubber software (www.biologic.com.au). Kinetic parameters (ka=association and kd=dissociation rate constants) and equilibrium dissociation constant (KD=kd/ka) were derived by fitting each set of experimental data to a Langmuir 1:1 binding model. All interaction measurements were performed in triplicate and the derived binding parameters reported as averaged values±standard deviation.

CXCR4 = CXCR4 (Homo sapiens, UniProt P61073); experiment: β-arrestin BRET assay, antagonist mode with 100 nM SDF-1; assay type: cell-based; parameters: expressed in transfected cells; host or cells: HEK293FT; conditions: only an order of magnitude is printed in the cell
From the text: (FIGS. 3A-3F and 14) BRET was used in this study to assess the real-time kinetic profiles resulting from any consequent increase in proximity, building upon the previously validated monitoring of GPCR/β-arrestin interactions utilizing BRET. BRET occurs between a complementary Renilla luciferase (Rluc) variant as donor and green fluorescent protein variant as acceptor. Upon Rluc-catalyzed oxidation of the coelenterazine substrate (such as coelenterazine h for first generation BRET (BRET) or EnduRen for extended BRET (eBRET), energy is transferred to the acceptor if within 10 nm, resulting in acceptor light emission peaking at a characteristic wavelength. BRET (3-arrestin assays were carried out as described previously (See, H. B., Seeber, R. M., Kocan, M., Eidne, K. A. and Pfleger, K. D. (2011) ‘Application of G protein-coupled receptor-heteromer identification technology to monitor beta-arrestin recruitment to G protein-coupled receptor heteromers’, Assay Drug Dev Technol, 9(1), 21-30, 10.1089/adt.2010.0336). CXCR4/Rluc8 cDNA constructs were generated from plasmids containing the respective receptor cDNA tagged with Rluc kindly provided by Aron Chakera (Oxford University, United Kingdom). The β-arrestin 2/Venus cDNA construct was prepared previously from pCS2-Venus kindly provided by Atsushi Miyawaki (RIKEN Brain Science Institute, Wako-city, Japan). BRET technology in cells transiently expressing CXCR4/Rluc8 and β-arrestin2/Venus in the presence of 100 nM SDF-1 agonist was evaluated in the presence of the CXCR4 agonist SDF-1/CXCL12 and the i-bodies. HEK293FT cells were maintained at 37° C., 5% CO2 in Complete Media (Dulbecco's modified Eagle's medium containing 0.3 mg/mL glutamine, 100 IU/mL penicillin, and […] streptomycin; Gibco) supplemented with 10% fetal calf serum (FCS) and […] Geneticin (Gibco). Transfections were carried out 24 h after seeding using Genejuice (Novagen) according to manufacturer's instructions. Cells were harvested with 0.05% Trypsin-EDTA (Gibco). HEK293FT cells were transfected using FuGene6 (Promega). 5 μM coelenterazine h (Promega) in HBSS was used as the luciferase substrate solution. Cells were harvested 24 h post-transfection in HEPES-buffered phenol red-free Complete Medium containing 5% FCS and added to a poly-L-lysine-coated white 96-well plate (Nunc). Dose-response curves were generated using BRET, with medium in the plate being replaced with PBS containing […] coelenterazine h (Molecular Probes) and assays carried out immediately. For these assays, 48 h post-transfection, the plate was incubated at […], 5% CO2 for 2 h with […] EnduRen (Promega) to ensure substrate equilibrium was reached. All BRET measurements were taken at 37° C. using the VICTOR Light plate reader with Wallac 1420 software (PerkinElmer). Filtered light emissions were sequentially measured at 400-475 and 520-540 nm. The BRET signal was calculated by subtracting the ratio of 520-540 nm emission over 400-475 nm emission for a vehicle-treated cell sample from the same ratio for a second aliquot of the same cells treated with agonist (in this instance in the presence of SDF-1 or CXCL12) and i-body (ADCX-99, ADCX-272, ACDX-6, ACDX-306, ADCX-668) at various concentrations. Data are mean±S.E.M. of four independent experiments carried out in duplicate.
Binding of the i-bodies to CXCR4 were examined in a β-Arrestin BRET assay as described in See, Heng B et al (2011) Assay and Drug Development Technologies 9(1):21-30. The i-bodes were examined at ten concentrations with and without 100 nM SDF-1 with the addition of ‘vehicle’ and ‘SDF-1+vehicle’ controls in order to characterise if the i-bodies are agonist or antagonists of CXCR4 activity.

CCR4 = target: T2, CCR4 (Homo sapiens, UniProt P51679); experiment: PathHunter (DiscoverX) β-arrestin assay, CCR4; assay type: cell-based
T2 sequence (P51679 1-360): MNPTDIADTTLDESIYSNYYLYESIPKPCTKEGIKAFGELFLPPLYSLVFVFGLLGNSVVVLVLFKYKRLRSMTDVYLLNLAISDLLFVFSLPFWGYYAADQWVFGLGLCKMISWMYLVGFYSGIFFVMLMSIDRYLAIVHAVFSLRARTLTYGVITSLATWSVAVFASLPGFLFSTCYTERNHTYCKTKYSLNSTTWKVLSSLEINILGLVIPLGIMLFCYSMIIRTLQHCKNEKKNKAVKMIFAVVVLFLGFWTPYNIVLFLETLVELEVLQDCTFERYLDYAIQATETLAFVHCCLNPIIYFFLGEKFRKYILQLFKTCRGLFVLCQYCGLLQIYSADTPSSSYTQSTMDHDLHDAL
Procedure: (FIG. 9) The PathHunter® β-Arrestin assay (DiscoveRx) was performed according to the manufacturer's protocol. Cells were seeded into white walled, 384-well tissue culture-treated microplates (Corning) and normalized at 5,000 cells (or 10,000 cells for CXCR4) in a total volume of […]. Cell growth was at 37° C. (5% CO2, 95% relative humidity). […] Agonists were then added at the EC80 concentration and incubation was continued at 37° C. for 90 min (or 180 min for CCR1). Assay signal was generated through a single addition of 15 μL (50% v/v) of PathHunter Detection reagent cocktail, followed by 1 h incubation at room temperature. Microplates were read following signal generation with a PerkinElmer Envision instrument for chemiluminescent signal detection of relative light units (RLU).

[3] = mouse, in vivo, iv, 2 mg/kg
[4] = CXCR4 expressed on lipoparticles (Table 4)
[5] = off-rate, CXCR4 expressed on lipoparticles (Table 3)

T1 sequence (P61073 whole entry): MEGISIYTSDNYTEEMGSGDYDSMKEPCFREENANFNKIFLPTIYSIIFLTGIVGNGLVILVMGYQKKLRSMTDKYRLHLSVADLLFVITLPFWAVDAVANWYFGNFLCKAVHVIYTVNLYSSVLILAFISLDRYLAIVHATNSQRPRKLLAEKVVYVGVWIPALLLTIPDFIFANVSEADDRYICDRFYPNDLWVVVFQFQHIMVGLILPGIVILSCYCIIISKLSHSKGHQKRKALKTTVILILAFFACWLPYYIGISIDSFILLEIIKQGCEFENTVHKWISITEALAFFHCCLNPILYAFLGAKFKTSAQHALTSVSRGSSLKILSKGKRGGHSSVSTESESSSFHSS
Sequence of CXCR4 (P61073 whole entry): as above

Molecule: C/C=C(/C)C(=O)O[C@H]1C(C)=C2[C@H]([C@@H]1OC(=O)CCCCCCC)[C@@](C)(OC(C)=O)C[C@H](OC(=O)CCC)[C@@]1(O)[C@H]2OC(=O)[C@@]1(C)O [Thapsigargin, reference compound]
induction of apoptosis in Ramos cells (Ramos tumor cells): expected level of apoptosis

Molecule: TN14003
bleomycin induced pulmonary fibrosis [1]: blocks development of pulmonary fibrosis

Molecule: c1cnc(NCc2ccc(CNc3ncccn3)cc2)nc1 [MSX-122]
development of pulmonary fibrosis in irradiated mice ([1]; Shu et al 2013): significant reductions in development of pulmonary fibrosis
bleomycin induced pulmonary fibrosis [1]: completely preventing bleomycin-induced lung fibrosis

B1: 21H5-6H: control iBody 21H5 with 6 His tag (protein)
chain: LQVDIVPSQGEISVGESKFFLCQVAGDAKDKDISWFSPNGEKLTPNQQRISVVWNDDSSSTLTIYNANIDDAGIYKCVVTGSDAMSNYSYPISESEATVNVKIFQ
CCL5 levels in IPF lung fibroblasts (CCL2 and CCL5 protein): observed in one slow-IPF lung fibroblast line

B2: AM3-523-6H: AM3-523 with 6 His tag, containing the N-terminal sequence EAEA (protein)
chain: EAEALQVDIVPSQGEISVGESKFFLCQVAGSGSHMRISWFSPNGEKLTPNQQRISVVWNDDSSSTLTIYNANIDDAGIYKCVVWRVGGYRHRALVLGEATVNVKIFQ
modifications: left off: small tags and cut ends
induction of apoptosis in Ramos cells (Ramos tumor cells): strongly induce apoptosis

dissociation rate constant (kd) [2, 5]: 0.01445
IC50 in β-Arrestin BRET assay (Antagonist mode in the presence of 100 nM SDF-1) (CXCR4): ~uM
CCR4 activity (CCR4): −5%
B3: AM5-245: affinity matured CXCR4 i-body, SEQ ID NO: 68 (protein)
chain: LQVDIVPSQGEISVGESKFFLCQAAGSGSHIRISWFSPNGEKLTPNQQRISVVWNDDSSSTLTIYNANIDDAGIYKCVVWRTGGYRHRALVLGEATVNVKIFQ
modifications: protein sequence encoding AM5-245
Ka [2, 4]: 813000 M⁻¹ s⁻¹ and 771000 M⁻¹ s⁻¹
dissociation rate constant (kd) [2, 4]: 12100 M⁻¹ s⁻¹ and 12300 M⁻¹ s⁻¹

dissociation rate constant (kd) [2, 5]: 0.00817
IC50 in β-Arrestin BRET assay (Antagonist mode in the presence of 100 nM SDF-1) (CXCR4): ~uM
B4: AM3-920: affinity matured CXCR4 i-body, SEQ ID NO: 44 (protein)
chain: LQVDIVPSQGEISVGESKFFLCQVAGSGSGIRISWFSPNGEKLTPNQQRISVVWNDDSSSTLTIYNANIDDAGIYKCVVWRTGGYRHRYLVLGEATVNVKIFQ
modifications: protein sequence encoding AM3-920
Ka [2, 4]: 1.117e+06 M⁻¹ s⁻¹ and 1.26e+06 M⁻¹ s⁻¹
dissociation rate constant (kd) [2, 4]: 8020 M⁻¹ s⁻¹ and 7410 M⁻¹ s⁻¹

B5: AM3-114-Im7-FH-SA21: dual specificity i-body, AM3-114 with 18-residue HSA binding peptide SA21, SEQ ID NO: 80 (protein)
chain: MALQVDIVPSQGEISVGESKFFLCQVAGSLSGIRISWFSPNGEKLTPNQQRISVVWNDDSSSTLTIYNANIDDAGIYKCVVWRTGGYRHRYLVLGEATVNVKIFQGGGGSELKNSISDYTEAEFVQLLKEIEKENVAATDDVLDVLLEHFVKITEHPDGTDLIYYPSDNRDDSPEGIVKEIKEWRAANGKPGFKQGGGGGSDYKDDDDKGSGHHHHHHHHGGGGSRLIEDICLPRWGCLWEDD
modifications: protein sequence encoding AM3-114-Im7-FH-SA21 dual specificity ibody
AUC0-T [3]: 25266 ng·h/mL
Auc0-∞ [3]: 25544 ng·h/mL
C0 [3]: 23284 ng/mL
ClTOT [3]: 1.3049 mL/min/kg
Thalf [3]: 0.95 h
Tlast [3]: 6.00 h
VD [3]: 0.107571 L/kg
λZ [3]: 0.7279 h⁻¹
